These results are taken from the DeepSol protein solubility set.

A short description of the data set: soluble on expression in E. coli; label from the status in PepcDB or PDB records.
On to “MNCEKCNQNPATIQLYMNINGKRVEMPLCASCYAEVRNQANFGSNEFPGASGSPFDDIFRQLSGAANQANREQRSQANAQVQTQTAGGGNGILDEFGTNLTDMAKNEQLDPVIGRDKEIKRVIEILNRRNKNNPVLIGEPGVGKTAVVEGLANAIVAGDVPSKLMNKEVILLDVASLVSGTGIRGQFEERMKQLIKELQERKNTILFIDEVHTIVGAGSAEGSMDAGNILKPALARGDLQMIGATTLKEYRTIEKDAALERRFQPVTVSEPSTKETLTILNGLKPKYEDFHEVVYSPEALTAAVELSARYIQDRHLPDKAIDLMDEVGSKYNLSIEKLDENTVSERVARLEDEKNQALQMEDYEKAAKVRDEITRLEENKTSNSFSERPVIQASDIQAIIEEKTGIPVGRLQEDEQSKMKNLERNLTGKVIGQEDAVKKVAKAIRRSRVGLKSKNRPIGSFLFVGPTGVGKTELGRTLARELFGTSEAMIRLDMSEFMEKHSISKLIGSPPGYVGHEEAGQLTEKVRRNPYSIILLDEIEKAHPDVQHMFLQILEDGRLTDSQGRTVSFKDTVIIMTSNAGATDTEASVGFNTTTETKLEKGSDILAKLGAYFKPEFLNRLDSVIEFKSLEKDDLVQIIDLMLVDLNEMLAQEGVTIDVSKEVKEHLIDLGYDPKFGARPLRRTIQEHLEDTIADSLIDQPEAKNLVATLNDNKEITITEQVTA”, for which the “soluble on expression in E. coli” value is listed as “not soluble”.

As to “MNCGPPPTLSFAAPMDITLTETRFKTGTTLKYTCLPGYVRSHSTQTLTCNSDGEWVYNTFCIYKRCRHPGELRNGQVEIKTDLSFGSQIEFSCSEGFFLIGSTTSRCEVQDRGVGWSHPLPQCEILEHHHHHH”, the “soluble on expression in E. coli” value is reported as “soluble”.

As to “MNDIIVLTGKVKFTITLDPGVWIFDDRKVDMDAYFSEPAPQPTEAEQEDEEIKKLSAFWDREIQEGAVFPPTLKTERRFLKEKIITGSFGMPFAPFLRNAEPHEDASELVIETEHGETVIPLEKAYDLIFAFSQNGKPLRDDGPVHIYFGDGSNREAPITHVRRLVVR”, the “soluble on expression in E. coli” value is “not soluble”.

As for “MNDKIQKLIKKLAKECQKEDVALSLAAIDLEGEMAISQVGKGTIVAIAAHSQYTLTKEKLEQSDCDCPKHRLLKEMYGTETETTTKNTHTFVTDDPNDLMDILSKIFRGEFK”, the “soluble on expression in E. coli” value was “not soluble”.

As to “MNDRADFVVPDITTRKNVGLSHDANDFTLPQPLDRYSAEDHATWATLYQRQCKLLPGRACDEFLEGLERLEVDADRVPDFNKLNEKLMAATGWKIVAVPGLIPDDVFFEHLANRRFPVTWWLREPHQLDYLQEPDVFHDLFGHVPLLINPVFADYLEAYGKGGVKAKALGALPMLARLYWYTVEFGLINTPAGMRIYGAGILSSKSESIYCLDSASPNRVGFDLMRIMNTRYRIDTFQKTYFVIDSFKQLFDATAPDFAPLYLQLADAQPWGAGDIAPDDLVLNAGDHQGWADTEDV”, the “soluble on expression in E. coli” value is “soluble”.

Turning to “MNDTKITGGDLYDLWRVANINMPNVQAVYADACNVIHEINVANEDKFGRAHPGWAALGQIYEQCLFLTEGSLFSVAHYIDKAVKEFKEVDAEAARDLEAIFKNPNDHNPDDELTGDEKPKDVEVPNWWND”, the “soluble on expression in E. coli” value is “not soluble”.

On to “MNDVYAEAKLNKPDFHTAYTLKKDDGGAIALGEGSTGTVTEVTDPEAIATTVVEWTVTPAEALALVKKSKTEMFATVTYESVDGTRGDITITMKASIAMPSGVIKNDQKITEAWSPDKSYVKADVKEPVTVAVTDFKLDLFDVFEGRKVVVSDVTEANFPSFTKDKLTAKFIFSGAKDVTIGTDKYTFTVTANGTQLNASKNSATATKIATIDADGIITYNKADENAHALLNKSAYNVDPFTVGIEIVVTNECDEILPLTGNKFDVKFLRPINVVDLKSAELQDATTGTAKIDMSKLLGLTDWRGQAFAVAPIDFYTYYGVTGSAISIDKDQIMTTLNASEAAPKLLKDVAPNMSINYTCDLQKIGGDITYGDLVYANGKFTINAPFKLFIPVTVKYTFGEVTSTVTLTITPTHQ”, for which the “soluble on expression in E. coli” value was “not soluble”.

Regarding “MNEEVVMKFLHTSDWHVGRTLNGWSLLEEQEWAFQQIVDLAISEKVDGVIISGDLYDRAVPPVDAIKLFNKTLARLVLEEQIPVYAISGNHDGAERLHFGRDFFQHQGLHLSTRLEEAFEPIELENCQIFLLPFIDPIDARIYYKDDEGKEIQGIGDALTYILEDMEKAFDPDKAHVLVTHFAVSKKDDSDGQGLRELMLSETSNTVGGLTNVTSDLFKSFDYVALGHIHTRFASPTKRVQYSGSPVAFNVKEAKRKEEKGVYILELDASGDMSQTFHT”, the “soluble on expression in E. coli” value is “not soluble”.

With “MNELIGFVNGNSVRQKVLSLLASKGEMEGKRISKTLRVVYPTIAKTLEELEEKNLISKKEEIYFLTETGTKIEKMVQQI”, the “soluble on expression in E. coli” value is listed as “not soluble”.

Consider “MNEVLELKEELLQIKNNNYAVPEDVDAYPYAQWMLDYIGSPDAELRDDLIYSTLHTWITNDVFRQKELRGLMLQAISPDYLFYKIGEKGTDSVFKRAFSVLIPPLILSVHEREPLLSEEQLYSVAEQVLEYVYLEEDVRGYVEGKGWAHSTAHAADALDALARTIQNREFSYAILAAVRQKVRLSDYVYVHFEDERLVKPIMSLHNQKLLTEEEWSNWLHSIATVEDIRHPQHAILVQNIRSFLRSLYFRVLETEGSTAFTDDILETLKGLRRY”, for which the “soluble on expression in E. coli” value is listed as “not soluble”.

Take “MNEVLRQEKKYLISLEDYYLLSKKFSQVMTLDSHSSDDGYTIRSLYFDSLEDVDWQEKEDGVEIRRKIRLRNYGSQSNFAKLEMKQKQGANQKKRSLKLSKTDAQALINGNNSVLLNYPDTFAAECYSRITTQLYQPKTVIEYQRKAFVAKENNIRITFDHHIIGTEASYDIFSEDLNQNYLLDPYLVILEVKYNGFLLSYIKELLDSVDRSELSASKYCLGRAVSKHYRFLEHHHHHH”: the “soluble on expression in E. coli” value was “not soluble”.

For the sequence “MNFDVAIIGGGLAGLTCAIALQQRGKRCVIINNGQAAIDFASGSLDLLSRMPSTTYGENRAVENLKENITALRNELPAHPYSLLGAEKVLAKAQDFERLANELHLDLIGSTEKNHWRVTGLGSLRGAWLSPNSVPTVQGNEPFPHKRIAVLGIEGYHDFQPQLLAANLVLNPQFEHCEVTSGFLNIPQLDELRKNAREFRSVNISQLLEHKLAFKDLVKEIIESAQGAEAVFLPACFGLENQEFMTALRDATKLALFELPTLPPSLLGMRQRIQLRHKFESLGGLMINGDSALNATFEGNQVRCINTRLLEDEEITADNFVLASGSFFSKGLISEFDKIYEPVFESDIIGVEGFNNKDRFTWTAHRFAHPQPYQSAGVAINAQCQVKKCGQFLTNLYAVGNVIGGFNALELGCGSGVAVVTALAVADEILAKLEHHHHHH”, the “soluble on expression in E. coli” value was “soluble”.

Take “MNFFSLHPNVYATGRPKGLIGMLENVWVSNHTPGEGTLYLISGFSNYNGGVRFYETFTEHINQGGRVIAILGGSTSQRLSSRQVVEELLNRGVEVHIINRKRILHAKLYGTSNNLGESLVVSSGNFTGPGMSQNIEASLLLDNNTTQSMGFSWNDMISEMLNQNWHIHNMTNATDASPGWNLLYDERTTNLTLDETERVTLIVTLGHADTARIQAAPGTTAGQGTQYFWLSKDSYDFFPPLTIRNRRGTKATYSSLINMNYIDINYTDTQCRVTFEAENNFDFRLGTGKLRYTGVAKSNDIAAITRVGDSDYELRIIKQGTPEHSQLDPYAVSFIGNRGKRFGYISNEEFGRIIGVTF”: the “soluble on expression in E. coli” value is reported as “soluble”.

With “MNFSIRVILLLTGFVSLAFSAPKFLTISDIHYGAENIAKDGQDTGKEFLDVTFKRFEELSQNVDFILHLGDLPTHSLFSIPKKEEYEQVVFHGLHEANPGQKPMFYITGNNDSLLGNYQPFSSDNKSPLNLALDWDGACAYCDGLIIDDTHMRKDGYYSSYVIPNNKEIILIALNSVQWTKTPVFLPKYPNQQRDAFVQLFWLEQQLKNHRAKQLLLAMHVPPGTAYNGNRFWHDIYLDRFLTLLDKYHQSYDQITILFSHSHMEEFRKIRLSDGSTIYAFSTPGISRAHHNNPGMKIFDLDKQMRVRNSTTYYTSDLYEWGNEYYQAMNTPDAIFPNCQNKTIPQCLDTLSPEQVCNNLEVGLFYGVKSTRVPYQGCIKTYQINLEHHHHHH”, the “soluble on expression in E. coli” value is given as “not soluble”.

“MNGPIIMTREERMKIVHEIKERILDKYGDDVKAIGVYGSLGRQTDGPYSDIEMMCVMSTEEAEFSHEWTTGEWKVEVNFYSEEILLDYASQVESDWPLTHGQFFSILPIYDSGGYLEKVYQTAKSVEAQTFHDAICALIVEELFEYAGKWRNIRVQGPTTFLPSLTVQVAMAGAMLIGLHHRICYTTSASVLTEAVKQSDLPSGYDHLCQFVMSGQLSDSEKLLESLENFWNGIQEWTERHGYIVDVSKRIPF”: the “soluble on expression in E. coli” value is on record as “soluble”.

Turning to “MNHAQLRRVTAESFAHYRHGLAQLLFETVHGGASVGFMADLDMQQAYAWCDGLKADIAAGSLLLWVVAEDDNVLASAQLSLCQKPNGLNRAEVQKLMVLPSARGRGLGRQLMDEVEQVAVKHKRGLLHLDTEAGSVAEAFYSALAYTRVGELPGYCATPDGRLHPTAIYFKTLGQPT”, the “soluble on expression in E. coli” value is recorded as “soluble”.

For the sequence “MNHLLSMEHLSTDQIYKLIQKASQFKSGERQLPNFEGKYVANLFFENSTRTKCSFEMAELKLGLKTISFETSTSSVSKGESLYDTCKTLESIGCDLLVIRHPFNNYYEKLANINIPIANAGDGSGQHPTQSLLDLMTIYEEYGYFEGLNVLICGDIKNSRVARSNYHSLKALGANVMFNSPNAWIDDSLEAPYVNIDDVIETVDIVMLLRIQHERHGLAEETRFAADDYHQKHGLNEVRYNKLQEHAIVMHPAPVNRGVEIQSDLVEASKSRIFKQMENGVYLRMAVIDELLK”, the “soluble on expression in E. coli” value is “not soluble”.

For the sequence “MNHNDVLRSLRYMLKVNDAKMAEIIGLSGLEVHPLVLATYLKKEEEEGFVRCPERVMAHFLDGLVIYRRGKDESRPQQPIELPVTNNLILKKLRVAFELKEDDLHAILKSVNFPVSKPELSALFRKAGHDNYRPCGDQLMRNFLKGLTLRVRG”, the “soluble on expression in E. coli” value is “not soluble”.

In the case of “MNHTSGITPLHPSIFHNILGLVALQTTRVGGVSASPLDSLNLGTHVGDDPERVRENERRLCAFLEISCESIVTTGQVHGTEIAVVTGPGKLDGYDALITTVRGLFVGILTADCYPILIYDRRTRACGAAHAGWQGTAGRIAEKTVNAMHNSFGTRPEDCLAWVGTGISGECYEIGGEVAARFSSRYLKPSPSGEGRQLLDLSAANRDQLIEAGIPPSQVQCSELCSYRDADRFFSYRRDNGKTGRMLALIGLRHSD”, the “soluble on expression in E. coli” value is “soluble”.

For “MNIDVEFHIRHNYPWNKLPANVRQSLGNSQREYEKQVVLYSIRNQLRYRNNLVKHVKKDERRYYEELLKYSRDHLMLYPYHLSDIVCYVCL”, the “soluble on expression in E. coli” value is “not soluble”.

On to “MNIGVIGTGNMGTILIEAFLDSGAVKADQLVITNRTLAKAFAIQRAHPGIAVVADAAEVIKQSSLVFLCVKPLDIHPLLQQLAPHWTREHCLVSITSPISVEQLEAAVPCQIVRAIPSIANRALSGSILVTFGSRCSTTCRQTIDDLLRRIASPVYIDEAITRVASDISSCGPAFFSYLLQRFIDAAAAKTAITKEQATMLATDMIIGLGELLKRNLYTLPTLQEKVCVKGGITGEGIAVLEQRMNGVFEEVLAKTHEKFKEDVEKVKQQFS”, for which the “soluble on expression in E. coli” value is given as “not soluble”.

In the case of “MNILLCCSAGMSTSLLVTKMEAAAKARGLEGKIWAVSGDAVKTNIDQADVLLLGPQVRYMLSSMKTLADERNVGIDVINPMHYGMMNGEAVLDHALTLKK”, the “soluble on expression in E. coli” value was “not soluble”.
